Assay results taken from paper PMC5871880, “Structural insights into the RNA methyltransferase domain of METTL16” (Scientific Reports, 2018).

Target: the molecule itself
Experiment: SEC; analytical SEC on Superdex 200 10/300 GL; samples ~21 µM in 100 µl; 25 mM HEPES pH 7.5, 100 mM KCl, 50 mM NaCl, 1 mM TCEP, 1 mM MgCl2; molecular weights from a standard curve

B1: human methyltransferase-like protein 16 (METTL16), residues 1-562 (enzyme)
chain: SNAMALSKSMHARNRYKDKPPDFAYLASKYPDFKQHVQINLNGRVSLNFKDPEAVRALTCTLLREDFGLSIDIPLERLIPTVPLRLNYIHWVEDLIGHQDSDKSTLRRGIDIGTGASCIYPLLGATLNGWYFLATEVDDMCFNYAKKNVEQNNLSDLIKVVKVPQKTLLMDALKEESEIIYDFCMCNPPFFANQLEAKGVNSRNPRRPPPSSVNTGGITEIMAEGGELEFVKRIIHDSLQLKKRLRWYSCMLGKKCSLAPLKEELRIQGVPKVTYTEFCQGRTMRWALAWSFYDDVTVPSPPSKRRKLEKPRKPITFVVLASVMKELSLKASPLRSETAEGIVVVTTWIEKILTDLKVQHKRVPCGKEEVSLFLTAIENSWIHLRRKKRERVRQLREVPRAPEDVIQALEEKKPTPKESGNSQELARGPQERTPCGPALREGEAAAVEGPCPSQESLSQEENPEPTEDERSEEKGGVEVLESCQGSSNGAQDQEASEQFGSPVAERGKRLPGVAGQYLFKCLINVKKEVDDALVEMHWVEGQNRDLMNQLCTYIRNQIFRLVAVN
notes: Ser-Asn-Ala linker encoded in the pMCSG68 vector, between the TEV protease cleavage site and residue 1; METTL16, human, UniProt Q86W50, residues 1-562; also called full-length METTL16; source: E. coli BL21 Gold, purified (HisTrap HP, TEV cleavage, SEC); not shown: His6, N-terminal, cleaved
stoichiometry N: 2
